Measured values taken from patent publication US20040248081, “LANA viral protein binding sites” (THE REGENTS OF THE UNIVERSITY OF MICHIGAN, published 2004).

Legend:
LANA 9-11 (last 237 aa) = LANA 9-11 (last 237 aa) (Kaposi's sarcoma-associated herpesvirus, UniProt Q9QR71 SEQ:926-1162); assay: EMSA; lacks leucine zipper; anti-LANA supershift; settings: tags: GST; label: radiolabel
LANA 1-950 = target: T1, LANA 1-950 (Kaposi's sarcoma-associated herpesvirus); assay: EMSA; settings: label: radiolabel
T1 chain: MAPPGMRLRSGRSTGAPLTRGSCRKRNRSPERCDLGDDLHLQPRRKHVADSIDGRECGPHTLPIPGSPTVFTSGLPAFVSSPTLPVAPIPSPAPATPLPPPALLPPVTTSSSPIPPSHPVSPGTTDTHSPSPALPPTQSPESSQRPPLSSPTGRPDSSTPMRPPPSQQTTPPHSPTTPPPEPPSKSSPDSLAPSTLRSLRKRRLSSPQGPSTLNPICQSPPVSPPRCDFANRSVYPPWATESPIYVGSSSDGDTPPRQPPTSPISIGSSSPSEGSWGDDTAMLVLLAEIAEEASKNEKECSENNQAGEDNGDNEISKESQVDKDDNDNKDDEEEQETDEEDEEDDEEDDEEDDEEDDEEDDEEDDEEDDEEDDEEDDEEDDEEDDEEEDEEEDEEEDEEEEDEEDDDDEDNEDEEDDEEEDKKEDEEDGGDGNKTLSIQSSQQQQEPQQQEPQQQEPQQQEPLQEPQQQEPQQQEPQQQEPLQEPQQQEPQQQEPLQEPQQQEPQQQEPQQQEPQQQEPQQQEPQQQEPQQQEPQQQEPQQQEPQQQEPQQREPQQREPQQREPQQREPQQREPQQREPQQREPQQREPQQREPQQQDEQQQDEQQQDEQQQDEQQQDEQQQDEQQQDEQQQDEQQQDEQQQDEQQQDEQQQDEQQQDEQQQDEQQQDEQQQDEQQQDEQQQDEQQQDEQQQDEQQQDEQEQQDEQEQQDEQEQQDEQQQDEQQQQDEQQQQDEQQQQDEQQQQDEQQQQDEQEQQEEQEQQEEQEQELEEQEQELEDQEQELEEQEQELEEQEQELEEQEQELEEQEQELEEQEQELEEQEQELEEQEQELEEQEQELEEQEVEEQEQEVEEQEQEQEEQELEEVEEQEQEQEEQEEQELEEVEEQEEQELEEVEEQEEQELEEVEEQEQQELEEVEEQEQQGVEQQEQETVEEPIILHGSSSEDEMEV

Sequence of LANA 9-11 (last 237 aa) (Q9QR71 893-1129): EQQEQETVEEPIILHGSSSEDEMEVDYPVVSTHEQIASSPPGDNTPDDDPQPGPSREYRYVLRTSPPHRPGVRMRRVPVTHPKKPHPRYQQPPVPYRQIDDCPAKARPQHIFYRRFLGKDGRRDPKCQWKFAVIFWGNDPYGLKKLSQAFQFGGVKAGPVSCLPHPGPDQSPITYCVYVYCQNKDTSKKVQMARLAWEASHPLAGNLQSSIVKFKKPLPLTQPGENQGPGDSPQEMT

B1: TLBR4 (dsDNA)
DNA 1: TCCCGCCCGGGCATGGG
DNA 2: CCCATGCCCGGGCGGGA
binding result (LANA 9-11 (last 237 aa)): binds | binding result (LANA 1-950): no binding
